# Numbered stars: 1 amine (or outer) side, 2 acyl side, 3 side chain; on linkers, the order of the positions; unused ones are H or OH. Bridge positions count the residues as written; N and C are the ends. Square brackets hold non-standard residues; d marks the D form. Primed or numbered codes have the meaning given here. Ends that are not written are not given here. * marks the point of attachment. Leu(4-F)″ = 4-fluoro-L-leucine, CC(C)(F)C[C@H](N[*:1])C(=O)[*:2]; Piperidin‑4‑ylacetic acid = O=C(CC1CCNCC1)*; Oic = O=C(O)[C@@H]1C[C@@H]2CCCC[C@@H]2N1; Phe(2-Cl) = N[C@@H](Cc1ccccc1Cl)C(=O)O; NMeI = CC[C@H](C)[C@H](NC)C(=O)O; tBuAla = CC(C)(C)C[C@H](N)C(=O)O; Chg = N[C@H](C(=O)O)C1CCCCC1; NMePro = CN1CCC[C@H]1C(=O)*; NMeC = CN[C@@H](CS)C(=O)O; NMeA = CN[C@@H](C)C(=O)O; Orn = NCCC[C@H](N)C(=O)O; Abu = CC[C@H](N)C(=O)O; Sar = CNCC(=O)O
# B1: Example 238: AIC+SRS-((2-Chloro)F)-PPI-((N-Me)C)+IPD-NH2 (peptide)
# peptide: AICSRS[Phe(2-Cl)]PPI[NMeC]IPD-NH2
# modifications: disulfide 3-11; N-terminus assumed
# SMILES: CC[C@H](C)[C@H](NC(=O)[C@H](C)N)C(=O)N[C@H]1CSSC[C@@H](C(=O)N[C@H](C(=O)N2CCC[C@H]2C(=O)N[C@@H](CC(=O)O)C(N)=O)[C@@H](C)CC)N(C)C(=O)[C@H]([C@@H](C)CC)NC(=O)[C@@H]2CCCN2C(=O)[C@@H]2CCCN2C(=O)[C@H](Cc2ccccc2Cl)NC(=O)[C@H](CO)NC(=O)[C@H](CCCNC(=N)N)NC(=O)[C@H](CO)NC1=O
# B2: Example 247: AIC+SRSLPP-(Chg)-C+I-NH2 (peptide)
# peptide: AICSRSLPP[Chg]CI-NH2
# modifications: disulfide 3-11; N-terminus assumed
# SMILES: CC[C@H](C)[C@H](NC(=O)[C@@H]1CSSC[C@H](NC(=O)[C@@H](NC(=O)[C@H](C)N)[C@@H](C)CC)C(=O)N[C@@H](CO)C(=O)N[C@@H](CCCNC(=N)N)C(=O)N[C@@H](CO)C(=O)N[C@@H](CC(C)C)C(=O)N2CCC[C@H]2C(=O)N2CCC[C@H]2C(=O)N[C@@H](C2CCCCC2)C(=O)N1)C(N)=O
# B3: Example 254: AIC+SRSLPP-(Chg)-C+IPD-NH2 (peptide)
# peptide: AICSRSLPP[Chg]CIPD-NH2
# modifications: disulfide 3-11; N-terminus assumed
# SMILES: CC[C@H](C)[C@H](NC(=O)[C@H](C)N)C(=O)N[C@H]1CSSC[C@@H](C(=O)N[C@H](C(=O)N2CCC[C@H]2C(=O)N[C@@H](CC(=O)O)C(N)=O)[C@@H](C)CC)NC(=O)[C@H](C2CCCCC2)NC(=O)[C@@H]2CCCN2C(=O)[C@@H]2CCCN2C(=O)[C@H](CC(C)C)NC(=O)[C@H](CO)NC(=O)[C@H](CCCNC(=N)N)NC(=O)[C@H](CO)NC1=O
# B4: Example 250: ((N-Me)P)-IC+SRS-((tBu)A)-PPIC+IPD-NH2 (peptide)
# peptide: [NMePro]ICSRS[tBuAla]PPICIPD-NH2
# modifications: disulfide 3-11
# SMILES: CC[C@H](C)[C@H](NC(=O)[C@@H]1CCCN1C)C(=O)N[C@H]1CSSC[C@@H](C(=O)N[C@H](C(=O)N2CCC[C@H]2C(=O)N[C@@H](CC(=O)O)C(N)=O)[C@@H](C)CC)NC(=O)[C@H]([C@@H](C)CC)NC(=O)[C@@H]2CCCN2C(=O)[C@@H]2CCCN2C(=O)[C@H](CC(C)(C)C)NC(=O)[C@H](CO)NC(=O)[C@H](CCCNC(=N)N)NC(=O)[C@H](CO)NC1=O
# B5: Example 259: (Piperidin-4-ylacetic acid)-IC+SRS-((tBu)A)-PPI-((N-Me)C)+I-NH2 (peptide)
# peptide: {Piperidin‑4‑ylacetic acid}-ICSRS[tBuAla]PPI[NMeC]I-NH2
# modifications: disulfide 2-10
# SMILES: CC[C@H](C)[C@H](NC(=O)[C@@H]1CSSC[C@H](NC(=O)[C@@H](NC(=O)CC2CCNCC2)[C@@H](C)CC)C(=O)N[C@@H](CO)C(=O)N[C@@H](CCCNC(=N)N)C(=O)N[C@@H](CO)C(=O)N[C@@H](CC(C)(C)C)C(=O)N2CCC[C@H]2C(=O)N2CCC[C@H]2C(=O)N[C@@H]([C@@H](C)CC)C(=O)N1C)C(N)=O
# B6: Example 246: ((N-Me)G)-IC+SRS-((tBu)A)-PPIC+IPD-OH (peptide)
# peptide: [Sar]ICSRS[tBuAla]PPICIPD-OH
# modifications: disulfide 3-11; N-terminus assumed
# SMILES: CC[C@H](C)[C@H](NC(=O)CNC)C(=O)N[C@H]1CSSC[C@@H](C(=O)N[C@H](C(=O)N2CCC[C@H]2C(=O)N[C@@H](CC(=O)O)C(=O)O)[C@@H](C)CC)NC(=O)[C@H]([C@@H](C)CC)NC(=O)[C@@H]2CCCN2C(=O)[C@@H]2CCCN2C(=O)[C@H](CC(C)(C)C)NC(=O)[C@H](CO)NC(=O)[C@H](CCCNC(=N)N)NC(=O)[C@H](CO)NC1=O
# B7: Example 248: AIC+SRS-((4-Fluoro)L)-PPIC+IPD-NH2 (peptide)
# peptide: AICSRS[Leu(4-F)″]PPICIPD-NH2
# modifications: disulfide 3-11; N-terminus assumed
# SMILES: CC[C@H](C)[C@H](NC(=O)[C@H](C)N)C(=O)N[C@H]1CSSC[C@@H](C(=O)N[C@H](C(=O)N2CCC[C@H]2C(=O)N[C@@H](CC(=O)O)C(N)=O)[C@@H](C)CC)NC(=O)[C@H]([C@@H](C)CC)NC(=O)[C@@H]2CCCN2C(=O)[C@@H]2CCCN2C(=O)[C@H](CC(C)(C)F)NC(=O)[C@H](CO)NC(=O)[C@H](CCCNC(=N)N)NC(=O)[C@H](CO)NC1=O
# B8: Example 230: (Abu)-IC+SRSLPPIC+IPD-NH2 (peptide)
# peptide: [Abu]ICSRSLPPICIPD-NH2
# modifications: disulfide 3-11; N-terminus assumed
# SMILES: CC[C@H](N)C(=O)N[C@H](C(=O)N[C@H]1CSSC[C@@H](C(=O)N[C@H](C(=O)N2CCC[C@H]2C(=O)N[C@@H](CC(=O)O)C(N)=O)[C@@H](C)CC)NC(=O)[C@H]([C@@H](C)CC)NC(=O)[C@@H]2CCCN2C(=O)[C@@H]2CCCN2C(=O)[C@H](CC(C)C)NC(=O)[C@H](CO)NC(=O)[C@H](CCCNC(=N)N)NC(=O)[C@H](CO)NC1=O)[C@@H](C)CC
# B9: Example 231: AIC+SRS-((tBu)A)-P-(Oic)-I-((N-Me)C)+IPD-OH (peptide)
# peptide: AICSRS[tBuAla]P[Oic]I[NMeC]IPD-OH
# modifications: disulfide 3-11; N-terminus assumed
# SMILES: CC[C@H](C)[C@H](NC(=O)[C@H](C)N)C(=O)N[C@H]1CSSC[C@@H](C(=O)N[C@H](C(=O)N2CCC[C@H]2C(=O)N[C@@H](CC(=O)O)C(=O)O)[C@@H](C)CC)N(C)C(=O)[C@H]([C@@H](C)CC)NC(=O)[C@@H]2C[C@@H]3CCCC[C@@H]3N2C(=O)[C@@H]2CCCN2C(=O)[C@H](CC(C)(C)C)NC(=O)[C@H](CO)NC(=O)[C@H](CCCNC(=N)N)NC(=O)[C@H](CO)NC1=O
# B10: Example 260: A-((N-Me)I)-C+SRSLPPIC+IPD-NH2 (peptide)
# peptide: A[NMeI]CSRSLPPICIPD-NH2
# modifications: disulfide 3-11; N-terminus assumed
# SMILES: CC[C@H](C)[C@@H]1NC(=O)[C@@H]2CCCN2C(=O)[C@@H]2CCCN2C(=O)[C@H](CC(C)C)NC(=O)[C@H](CO)NC(=O)[C@H](CCCNC(=N)N)NC(=O)[C@H](CO)NC(=O)[C@@H](NC(=O)[C@H]([C@@H](C)CC)N(C)C(=O)[C@H](C)N)CSSC[C@@H](C(=O)N[C@H](C(=O)N2CCC[C@H]2C(=O)N[C@@H](CC(=O)O)C(N)=O)[C@@H](C)CC)NC1=O
# B11: Example 234: AIC+SRS-((tBu)A)-P-(Oic)-I-C+IPD-NH2 (peptide)
# peptide: AICSRS[tBuAla]P[Oic]ICIPD-NH2
# modifications: disulfide 3-11; N-terminus assumed
# SMILES: CC[C@H](C)[C@H](NC(=O)[C@H](C)N)C(=O)N[C@H]1CSSC[C@@H](C(=O)N[C@H](C(=O)N2CCC[C@H]2C(=O)N[C@@H](CC(=O)O)C(N)=O)[C@@H](C)CC)NC(=O)[C@H]([C@@H](C)CC)NC(=O)[C@@H]2C[C@@H]3CCCC[C@@H]3N2C(=O)[C@@H]2CCCN2C(=O)[C@H](CC(C)(C)C)NC(=O)[C@H](CO)NC(=O)[C@H](CCCNC(=N)N)NC(=O)[C@H](CO)NC1=O
# B12: Example 261: G-((N-Me)I)-C+SRSLPPIC+IPD-NH2 (peptide)
# peptide: G[NMeI]CSRSLPPICIPD-NH2
# modifications: disulfide 3-11; N-terminus assumed
# SMILES: CC[C@H](C)[C@@H]1NC(=O)[C@@H]2CCCN2C(=O)[C@@H]2CCCN2C(=O)[C@H](CC(C)C)NC(=O)[C@H](CO)NC(=O)[C@H](CCCNC(=N)N)NC(=O)[C@H](CO)NC(=O)[C@@H](NC(=O)[C@H]([C@@H](C)CC)N(C)C(=O)CN)CSSC[C@@H](C(=O)N[C@H](C(=O)N2CCC[C@H]2C(=O)N[C@@H](CC(=O)O)C(N)=O)[C@@H](C)CC)NC1=O
# B13: Example 236: (Orn)-IC+SRSLPPIC+I-NH2 (peptide)
# peptide: [Orn]ICSRSLPPICI-NH2
# modifications: disulfide 3-11; N-terminus assumed
# SMILES: CC[C@H](C)[C@H](NC(=O)[C@@H]1CSSC[C@H](NC(=O)[C@@H](NC(=O)[C@@H](N)CCCN)[C@@H](C)CC)C(=O)N[C@@H](CO)C(=O)N[C@@H](CCCNC(=N)N)C(=O)N[C@@H](CO)C(=O)N[C@@H](CC(C)C)C(=O)N2CCC[C@H]2C(=O)N2CCC[C@H]2C(=O)N[C@@H]([C@@H](C)CC)C(=O)N1)C(N)=O
# B14: Example 253: ((N-Me)A)-IC+SRS-((tBu)A)-PPIC+IPD-NH2 (peptide)
# peptide: [NMeA]ICSRS[tBuAla]PPICIPD-NH2
# modifications: disulfide 3-11; N-terminus assumed
# SMILES: CC[C@H](C)[C@H](NC(=O)[C@H](C)NC)C(=O)N[C@H]1CSSC[C@@H](C(=O)N[C@H](C(=O)N2CCC[C@H]2C(=O)N[C@@H](CC(=O)O)C(N)=O)[C@@H](C)CC)NC(=O)[C@H]([C@@H](C)CC)NC(=O)[C@@H]2CCCN2C(=O)[C@@H]2CCCN2C(=O)[C@H](CC(C)(C)C)NC(=O)[C@H](CO)NC(=O)[C@H](CCCNC(=N)N)NC(=O)[C@H](CO)NC1=O
# Target: T1, recombinant rat MASP1 active protease (amino acids 302-704, C-terminal His Tag) (rat, UniProt Q8CHN8 302-704)
# T1 sequence: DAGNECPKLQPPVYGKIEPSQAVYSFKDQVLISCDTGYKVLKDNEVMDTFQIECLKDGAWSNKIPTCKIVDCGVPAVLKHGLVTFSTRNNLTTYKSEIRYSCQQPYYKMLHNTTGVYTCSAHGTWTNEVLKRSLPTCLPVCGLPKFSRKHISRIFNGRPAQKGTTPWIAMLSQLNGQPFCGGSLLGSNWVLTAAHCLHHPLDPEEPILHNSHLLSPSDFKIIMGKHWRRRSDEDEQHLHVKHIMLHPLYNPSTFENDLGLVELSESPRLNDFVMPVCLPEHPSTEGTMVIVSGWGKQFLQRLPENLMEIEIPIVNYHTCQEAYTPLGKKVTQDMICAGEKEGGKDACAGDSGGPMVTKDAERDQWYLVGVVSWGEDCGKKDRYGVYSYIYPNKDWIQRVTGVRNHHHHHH
# Assay: cell-based or functional assay
row,Binder,rat MASP1 IC50 [nM]
1,B1,150
2,B2,700
3,B3,320
4,B4,77
5,B5,27
6,B6,78
7,B7,260
8,"[(N,N-diMe)A]ICSRS[tBuAla]PPICIPD-NH2 (disulfide 3-11) [Example 243: ((N,N-diMe)A)-IC+SRS-((tBu)A)-PPIC+IPD-NH2]",140
9,B8,370
10,B9,38
11,B10,160
12,"AICSRSL[(4aR,6aR,9S,11aS)‑11‑Oxo‑2,3,4,4a,6a,7,8,9,11,11a‑decahydro‑1H‑pyrido(3,2-e)pyrrolo(1,2-a)azepine‑9‑carboxylic acid]ICIPD-NH2 (disulfide 3-10)",130
13,B11,78
14,B12,300
15,B13,890
16,B14,130
17,[Sar]ICSRSLPPICIPD-NH2 (disulfide 3-11; also: HCl salt) [Example 228: ((N-Me)G)-IC+SRSLPPIC+IPD-NH2 (HCl salt)],260
